Assay results reported in patent US20230265179A1 (TWIST BIOSCIENCE, published 2023).

Columns and labels:
IL1RL2 = target: T1, IL1RL2 (UniProt Q9HB29 20-335, limits assumed); experiment: SPR (Carterra LSA), antibody immobilised, 1:1 model
T1 construct: Soluble analyte of the SPR runs
T1 sequence (looked up): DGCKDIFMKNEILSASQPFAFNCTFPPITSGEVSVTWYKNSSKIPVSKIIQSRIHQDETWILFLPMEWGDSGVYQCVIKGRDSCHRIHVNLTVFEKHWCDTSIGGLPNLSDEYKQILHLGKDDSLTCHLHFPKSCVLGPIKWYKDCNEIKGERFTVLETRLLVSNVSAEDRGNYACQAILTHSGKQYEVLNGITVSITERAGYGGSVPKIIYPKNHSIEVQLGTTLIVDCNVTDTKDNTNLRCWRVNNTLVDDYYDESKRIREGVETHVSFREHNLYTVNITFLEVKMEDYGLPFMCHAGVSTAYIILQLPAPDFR
Description: (§1) SPR experiments were performed on a Carterra LSA SPR biosensor equipped with a HC30M chip at 25° C. in HBS-TE. Antibodies were diluted to 10 μg/mL and amine-coupled to the sensor chip by EDC/NHS activation, followed by ethanolamine HCl quenching. Increasing concentrations of analyte were flowed over the sensor chip in HBS-TE with 0.5 mg/mL BSA with 5-minute association and 15-minute dissociation. Following each injection cycle the surface was regenerated with 2× 30-second injections of IgG elution buffer (Thermo). Data were analyzed in Carterra's Kinetics Tool software with 1:1 binding model.

[1] = target: T2, IL1RL2 over-expressed on Expi293 cells (UniProt Q9HB29 20-575, limits assumed); experiment: flow cytometry, over-expressing Expi293 vs parent cells, 100 nM antibody;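 note: ratio is mean fluorescence intensity on over-expressing Expi293 cells divided by that measured on parental Expi293 cells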
T2 construct: whole, on cells; Target of the flow cytometry assay; MFI ratio is over-expressing cells over parent cells
T2 sequence (looked up): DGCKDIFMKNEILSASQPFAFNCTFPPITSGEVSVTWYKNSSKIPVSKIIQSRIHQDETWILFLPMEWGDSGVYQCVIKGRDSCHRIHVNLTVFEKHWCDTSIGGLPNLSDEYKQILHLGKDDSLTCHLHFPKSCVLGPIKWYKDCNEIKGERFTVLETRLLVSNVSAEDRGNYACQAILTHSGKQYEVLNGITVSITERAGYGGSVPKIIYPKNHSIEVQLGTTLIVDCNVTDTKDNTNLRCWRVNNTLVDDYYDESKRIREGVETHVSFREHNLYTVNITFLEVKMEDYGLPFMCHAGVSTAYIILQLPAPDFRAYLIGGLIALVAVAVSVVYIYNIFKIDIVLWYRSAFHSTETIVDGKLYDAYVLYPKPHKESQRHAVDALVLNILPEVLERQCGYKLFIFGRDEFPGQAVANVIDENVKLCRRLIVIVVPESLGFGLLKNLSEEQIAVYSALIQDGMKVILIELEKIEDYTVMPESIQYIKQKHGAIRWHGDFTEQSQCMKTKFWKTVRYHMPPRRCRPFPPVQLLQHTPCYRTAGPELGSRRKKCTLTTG
Description: (§2) All incubations and washes were in buffer containing PBS+1% BSA. MFI Ratio is defined by the mean fluorescence intensity (MFI) of the cytokine over-expressing Expi293 cell over the Expi293 parent cell. […] EC50 was calculated in GraphPad Prism.

CD40L = target: T3, CD40L (UniProt P29965 1-261, limits assumed); experiment: flow cytometry, 100 nM IgG, CD40L over-expressing Expi293 cells over parent Expi293 cells
T3 construct: whole, on cells; also called cytokine over-expressing Expi293 cells (CD40L)
T3 sequence (looked up): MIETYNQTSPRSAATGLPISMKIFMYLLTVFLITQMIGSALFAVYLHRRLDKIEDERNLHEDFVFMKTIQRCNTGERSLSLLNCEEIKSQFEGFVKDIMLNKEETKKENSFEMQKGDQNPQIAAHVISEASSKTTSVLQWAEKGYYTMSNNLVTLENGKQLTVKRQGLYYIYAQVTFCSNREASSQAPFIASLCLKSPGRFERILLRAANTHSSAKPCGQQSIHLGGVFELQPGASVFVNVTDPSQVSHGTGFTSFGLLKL
Description: as §2

[2] = target: T4, TSLP on over-expressing Expi293 cells (UniProt Q969D9 29-159, limits assumed); experiment: flow cytometry, 100 nM, TSLP over-expressing Expi293 over parent cells
T4 construct: whole, on cells; Target of the flow cytometry assay; also called cytokine over-expressing Expi293 cells
Description: as §2

TSLP = target: T5, TSLP (UniProt Q969D9 29-159); experiment: SPR, Carterra LSA, antibody amine-coupled, 1:1 model
T5 construct: Soluble analyte of the SPR assay
Description: as §1

| Binder | Kd (IL1RL2) [nM] | koff (IL1RL2) [s⁻¹] | kon (IL1RL2) [M⁻¹ s⁻¹] | 100 nM FACS (MFI Ratio) [1] | 100 nM FACS (MFI Ratio) (CD40L) [MFI ratio] | 100 nM (MFI Ratio) [2] [MFI ratio] | also measured |
| --- | --- | --- | --- | --- | --- | --- | --- |
| IL1RL2-11 (VHH, VHH-Fc based on IgG2 Fc) VHH: EVQLVESGGGLVQPGGSLRLSCAASGRTFSRYAMGWFRQAPGKEREFVAAINWSGARTYYADSVKGRFTISADNSKNTAYLQMNSLKPEDTAVYYCAVSQPLNYYTYYDARRYDWGQGTLVTVSS | 8.48 | 0.000342 | 40400 | 22.4 |  |  |  |
| IL1RL2-29 (VHH, VHH-Fc based on IgG2 Fc) VHH: EVQLVESGGGLVQPGGSLRLSCAASGGTFSAYTMGWFRQAPGKEREFVAAISWSGGSTYYADSVKGRFTISADNSKNTAYLQMNSLKPEDTAVYYCAVSQPLNYYTYYDARRYDWGQGTLVTVSS | 10.5 | 0.000279 | 26500 | 5.46 |  |  |  |
| IL1RL2-23 (VHH, VHH-Fc based on IgG2 Fc) VHH: EVQLVESGGGLVQPGGSLRLSCAASGPTFSTYAMGWFRQAPGKEREFVAAISWSGANTYYADSVKGRFTISADNSKNTAYLQMNSLKPEDTAVYYCAVSQPLNYYTYYDARRYDWGQGTLVTVSS | 8.13 | 0.000124 | 15300 | 13.9 |  |  |  |
| CD40L-434 (antibody, V domains shown) VH: EVQLLESGGGLVQPGGSLRLSCAASGFGFSSYAMSWVRQAPGKGLEWVSAISGGGGSIYYADSVKGRFTISRDNSKNTLYLQMNSLRAEDTAVYYCARHGGYYYYYMDVWGQGTLVTVSS VL: DIQMTQSPSSLSASVGDRVTITCRASQSVSRFLNWYQQKPGKAPKLLIYAASTLQPGVPSRFSGSGSGTDFTLTISSLQPEDFATYYCQQSYETPLTFGGGTKVEIK |  |  |  |  | 6.1 |  |  |
| TSLP-31 (VHH, VHH-Fc (IgG2 Fc); not shown: IgG2 Fc of the VHH-Fc format) VHH: EVQLVESGGGLVQPGGSLRLSCAASGNIFANNIMGWFRQAPGKERELVSAIFSDGSTYYADSVKGRFTISADNSKNTAYLQMNSLKPEDTAVYYCARDDIVGAWSLDCWGQGPLMTVSS |  |  |  |  |  | 18.4 |  |
| TSLP-34 (VHH, VHH-Fc (IgG2 Fc); not shown: IgG2 Fc of the VHH-Fc format) VHH: EVQLVESGGGLVQPGGSLRLSCAASGHIFANNIMGWFRQAPGKERELVSAIFSDGSTYYADSVKGRFTISADNSKNTAYLQMNSLKPEDTAVYYCARDAIVGAASLDYWGQGTLVTVSS |  |  |  |  |  | 16.5 |  |
| TSLP-28 (VHH, VHH-Fc (IgG2 Fc); not shown: IgG2 Fc of the VHH-Fc format) VHH: EVQLVESGGGLVQPGGSLRLSCAASGFTFDDYEMGWFRQAPGKEREFVGSIGCDGSTLYADSVKGRFTISADNSKNTAYLQMNSLKPEDTAVYYCTTDCDDHCGWGQGTLVTVSS |  |  |  |  |  | 0.7 |  |
| TSLP-15 (VHH, VHH-Fc (IgG2 Fc); not shown: IgG2 Fc of the VHH-Fc format) VHH: EVQLVESGGGLVQPGGSLRLSCAASGFILDDYAMGWFRQAPGKEREFVATIAGGYTYYADSVKGRFTISADNSKNTAYLQMNSLKPEDTAVYYCPVFDGYTRIHWGQGTLVTVSS |  |  |  |  |  | 1.5 |  |
| CD40L-416 (antibody, V domains shown) VH: EVQLLESGGGLVQPGGSLRLSCAASGFTFSNYAMSWVRQAPGKGLEWVSAISGSGHSTYYADSVKGRFTISRDNSKNTLYLQMNSLRAEDTAVYYCARGGGYYNPLLFDYWGQGTLVTVSS VL: DIQMTQSPSSLSASVGDRVTITCRASQYISTYLNWYQQKPGKAPKLLIYAASTLETGVPSRFSGSGSGTDFTLTISSLQPEDFATYYCQQSYSIPPVTFGGGTKVEIK |  |  |  |  | 3.4 |  |  |
| TSLP-33 (VHH, VHH-Fc (IgG2 Fc); not shown: IgG2 Fc of the VHH-Fc format) VHH: EVQLVESGGGLVQPGGSLRLSCAASGFSLDYYGMGWFRQAPGKEREFVAAIHWNGDSTLYADSVKGRFTIIADNSKNTAYLQMNSLKPEDTAVYYCARGFSGWFPFDYWGQGTLVTVSS |  |  |  |  |  | 21 |  |
| TSLP-21 (VHH, VHH-Fc (IgG2 Fc); not shown: IgG2 Fc of the VHH-Fc format) VHH: EVQLVESGGGLVQPGGSLRLSCAASGNIFSRYIMGWFRQAPGKERELVSAIFSDGSTLYADSVKGRFTISADNSKNTAYLQMNSLKPEDTAVYYCAKGGYSSGWFDYWGQGTLVTVSS |  |  |  |  |  | 0.7 | Kd (TSLP): 10.6 nM; koff (TSLP): 0.00113 s⁻¹; kon (TSLP): 106000 M⁻¹ s⁻¹ |
| IL1RL2-24 (VHH, VHH-Fc based on IgG2 Fc) VHH: EVQLVESGGGLVQPGGSLRLSCAASGRTFSTYDMGWFRQAPGKERELVASIVWIGGRTYYADSVKGRFTISADNSKNTAYLQMNSLKPEDTAVYYCADVNGDWGQGTLVTVSS | ≤ 0.103 | ≤ 1e-05 | 97200 | 18.1 |  |  |  |
| IL1RL2-30 (VHH, VHH-Fc based on IgG2 Fc) VHH: EVQLVESGGGLVQPGGSLRLSCAASGGTLRGFDIGWFRQAPGKEREFVAAVTWSGGSTNYADSVKGRFTISADNSKNTAYLQMNSLKPEDTAVYYCADVNGDWGQGTLVTVSS | 2.14 | 0.000194 | 90800 | 10.2 |  |  |  |
| CD40L-398 (antibody, V domains shown) VH: EVQLLESGGGLVQPGGSLRLSCAASGFTFSNYAMSWVRQAPGKGLEWVSAITGSGSTTYYADSVKGRFTISRDNSKNTLYLQMNSLRAEDTAVYYCARAHDYDSMLMDYWGQGTLVTVSS VL: DIQMTQSPFSLSASVGDRVTITCRASQNILTYLNWYQQKPGKAPKLLIYGASTLRSGVPSRFSGSGSGTDFTLTISSLQPEDFATYYCQQSYRLPLTFGGGTKVEIK |  |  |  |  | 45.1 |  |  |
| CD40L-414 (antibody, V domains shown) VH: EVQLLESGGGLVQPGGSLRLSCAASGFTFSNYAMSWVRQAPGKGLEWVSAITGSGSTTYYADSVKGRFTISRDNSKNTLYLQMNSLRAEDTAVYYCATDYGDYDRLNFDLWGQGTLVTVSS VL: DIQMTQSPSSLSASVGDRVTITCRASQSIGTFLNWYQQKPGKAPKLLIYGTSNLQSGVPSRFSGSGSGTDFTLTISSLQPEDFATYYCQQGYRTPLTFGGGTKVEIK |  |  |  |  | 11.2 |  |  |
| CD40L-419 (antibody, V domains shown) VH: EVQLLESGGGLVQPGGSLRLSCAASGFTFSNYAMSWVRQAPGKGLEWVSAITGSGSTTYYADSVKGRFTISRDNSKNTLYLQMNSLRAEDTAVYYCARAHDYDSMLMDYWGQGTLVTVSS VL: DIQMTQSPSSLSASVGDRVTITCRAGQSISSYLNWYQQKPGKAPKLLIYASSTLQRGVPSRFSGSGSGTDFTLTISSLQPEDFATYYCQQSHSVPLTFGGGTKVEIK |  |  |  |  | 18.6 |  |  |
| CD40L-403 (antibody, V domains shown) VH: EVQLLESGGGLVQPGGSLRLSCAASGFTFRNYGMNWVRQAPGKGLEWVSSISGSGDYTYYADSVKGRFTISRDNSKNTLYLQMNSLRAEDTAVYYCARGLTYDILPRFDSWGQGTLVTVSS VL: DIQMTQSPSSLSASVGDRVTITCRASQTISPYLNWYQQKPGKAPKLLIYAASTLQAGVPSRFSSSGSGTDFTLTISSLQPEDFATYYCQQSYSLPLTFGGGTKVEIK |  |  |  |  | 3.1 |  |  |
| TSLP-27 (VHH, VHH-Fc (IgG2 Fc); not shown: IgG2 Fc of the VHH-Fc format) VHH: EVQLVESGGGLVQPGGSLRLSCAASGSTFSDRAMGWFRQAPGKERELVSAIFSDGSTLYADSVKGRFTISADNSKNTAYLQMNSLKPEDTAVYYCASDVGMDVWGQGTLVTVSS |  |  |  |  |  | 0.6 |  |
| IL1RL2-2 (VHH, VHH-Fc based on IgG2 Fc) VHH: EVQLVESGGGLVQPGGSLRLSCAASGFTRSYYTMGWFRQAPGKERELVASITRGGGTTYADSVKGRFTISADNSKNTAYLQMNSLKPEDTAVYYCADVNGDWGQGTLVTVSS | 10.2 | 0.000784 | 76900 | 9.22 |  |  |  |
| IL1RL2-31 (VHH, VHH-Fc based on IgG2 Fc) VHH: EVQLVESGGGLVQPGGSLRLSCAASGRTFDSYDMGWFRQAPGKERELVASITFGGVTNYADSVKGRFTISADNSKNTAYLQMNSLKPEDTAVYYCADVNGDWGQGTLVTVSS | 3.82 | 0.000318 | 83300 | 7.16 |  |  |  |
